Assay [1] concerns the target T1, Human latent myostatin (human, UniProt O14793 25-266; O14793 267-375).
T1 construct: also called human myostatin latent form
T1 sequence 1: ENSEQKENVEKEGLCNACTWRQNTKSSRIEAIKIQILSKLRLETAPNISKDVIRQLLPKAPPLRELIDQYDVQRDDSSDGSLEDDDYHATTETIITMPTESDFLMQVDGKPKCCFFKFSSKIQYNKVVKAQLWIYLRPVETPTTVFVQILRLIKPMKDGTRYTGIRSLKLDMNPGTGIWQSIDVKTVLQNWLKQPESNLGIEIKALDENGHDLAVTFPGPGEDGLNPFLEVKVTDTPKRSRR
T1 sequence 2: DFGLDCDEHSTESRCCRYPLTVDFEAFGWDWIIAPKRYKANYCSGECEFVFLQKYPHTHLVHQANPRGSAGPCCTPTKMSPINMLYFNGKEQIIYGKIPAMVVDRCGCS
Nature of the assay: SPR 37C; KD pH 5.8 / KD pH 7.4.

The target in assay [2] is T2, Mouse latent myostatin (mouse, UniProt O08689 26-267; O08689 268-376).
T2 construct: Latent form = complex of two propeptides and the mature dimer
T2 sequence 1: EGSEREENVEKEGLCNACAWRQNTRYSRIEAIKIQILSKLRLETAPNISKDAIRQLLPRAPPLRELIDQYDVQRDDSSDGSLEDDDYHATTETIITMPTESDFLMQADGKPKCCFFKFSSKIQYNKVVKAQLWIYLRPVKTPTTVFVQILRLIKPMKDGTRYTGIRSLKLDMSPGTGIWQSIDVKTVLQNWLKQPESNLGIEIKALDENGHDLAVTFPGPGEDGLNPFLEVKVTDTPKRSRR
T2 sequence 2: T1 sequence 2
As to the kind of experiment: SPR 37C; KD pH 5.8 / KD pH 7.4.

Assay [3] addresses T3, Cynomolgus monkey latent myostatin (cynomolgus monkey, UniProt Q95J86 25-266; Q95J86 267-375).
T3 construct: Latent form = complex of two propeptides and the mature dimer; also called Cyno latent myostatin
T3 sequence 1: T1 sequence 1 with V52A
T3 sequence 2: T1 sequence 2
As to the kind of experiment: SPR 37C; KD pH 5.8 / KD pH 7.4.

For assay [4], the target named is T4, cynomolgus monkey FcγRIIa3 extracellular domain with C-terminal His-tag (cynomolgus monkey).
T4 construct: also called cyno FcgRIIa3; cynoFcγRIIa3
T4 chain: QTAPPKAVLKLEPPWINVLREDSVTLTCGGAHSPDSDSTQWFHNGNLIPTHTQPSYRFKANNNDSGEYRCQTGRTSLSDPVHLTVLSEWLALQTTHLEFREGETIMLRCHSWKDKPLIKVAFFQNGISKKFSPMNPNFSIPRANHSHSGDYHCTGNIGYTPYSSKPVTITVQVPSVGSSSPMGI
As to the kind of experiment: SPR (BIACORE), antibody captured, FcgR analyte. On the procedure:
(§1) The kinetic analysis of interactions between these antibodies and FcγR was carried out using BIACORE® T200 or BIACORE® 4000 (GE Healthcare). HBS-EP+ (GE Healthcare) was used as the running buffer, and the measurement temperature was set to 25° C. A chip produced by immobilizing Protein A. Protein A/G or mouse anti-human IgG kappa light chain (BD Biosciences) onto a Series S Sensor Chip CM4 or CM5 (GE Healthcare) by the amine-coupling method was used. […] After the measurement, the antibody captured on the chip was washed off by allowing reaction with 10 mM glycine-HCl, pH1.5 and 25 mM NaOH so that the chip was regenerated and used repeatedly. The sensorgrams obtained as measurement results were analyzed by the 1:1 Langmuir binding model using the BIACORE® Evaluation Software to calculate the binding rate constant ka (L/mol/s) and dissociation rate constant kd (l/s), and the dissociation constant KD (mol/L) was calculated from these values. […] Regarding such interactions, KD values were calculated using the following 1:1 binding model described in BIACORE® T100 Software Handbook BR1006-48 Edition AE.
The behavior of interacting molecules according to the 1:1 binding model on BIACORE® can be described by Equation 1: Req=C·R max/(KD+C)+RI, wherein, Req is a plot of steady-state binding levels to analyte concentration. C is concentration, RI is bulk refractive index contribution in the sample, and Rmax is analyte binding capacity of the surface. When this equation is rearranged, KD can be expressed as Equation 2: KD=C·Rmax/(Req−RI)−C. KD can be calculated by substituting the values of Rmax, RI, and C into Equation 1 or Equation 2. From the current measurement conditions, RI=0, C=2 μmol/L can be used.
For orientation: In SPR one partner is held on a chip, and binding of the other changes the refractive index at the surface.

Assay [5] addresses T5, human FcγRIIaH extracellular domain, C-terminal His-tag (human, UniProt P12318 34-217).
T5 construct: also called human FcγRIIa (type H); FcgRIIaH
T5 sequence: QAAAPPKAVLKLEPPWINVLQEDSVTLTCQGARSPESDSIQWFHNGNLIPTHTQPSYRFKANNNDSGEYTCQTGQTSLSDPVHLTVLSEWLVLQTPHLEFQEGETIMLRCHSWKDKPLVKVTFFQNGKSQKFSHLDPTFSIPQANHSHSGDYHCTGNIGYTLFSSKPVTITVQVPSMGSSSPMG
Nature of the assay: SPR (BIACORE) 25C, antibody captured, FcgR as analyte; weak binding, KD by Equation 2. On the procedure:
as §1
(§2) The behavior of interacting molecules according to the 1:1 binding model on BIACORE® can be described by Equation 1: Req=C·R max/(KD+C)+RI, wherein, Req is a plot of steady-state binding levels to analyte concentration. […]

Assay [6] concerns the target T6, cynomolgus monkey FcγRIIIaS extracellular domain, C-terminal His-tag (cynomolgus monkey, UniProt Q8SPW2 21-206 at identity 1.00)).
T6 construct: also called cyno FcγRIIIaS; FcgRIIIaS
T6 chain: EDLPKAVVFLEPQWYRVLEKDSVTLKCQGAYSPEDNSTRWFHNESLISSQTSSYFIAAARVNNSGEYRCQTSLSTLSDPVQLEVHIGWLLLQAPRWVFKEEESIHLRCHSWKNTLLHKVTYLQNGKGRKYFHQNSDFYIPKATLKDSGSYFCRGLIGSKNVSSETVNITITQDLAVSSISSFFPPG
The description is as above. As for the experimental part:
as §1, §2

Changes are numbered by the printed parent chain. Names may count otherwise.

B1: MS_M103205H795-SG1/M103202L889-SK1 (antibody, human IgG1, kappa)
heavy: not shown
light: DIVMTQSPATLSLSPGERATLSCTSSQSVYHANWLSWFQQKPGQPPKLLIYWASTLAYGVPSRFSGSGSGTDFTLTISSLQPEDAATYYCAGGYGGGRYAFGQGTKVEIKRTVAAPSVFIFPPSDEQLKSGTASVVCLLNNFYPREAKVQWKVDNALQSGNSQESVTEQDSKDSTYSLSSTLTLSKADYEKHKVYACEVTHQGLSSPVTKSFNRGEC
notes: also called MS1032LO06-SG1
With B1, the “ratio of KD at pH 5.8/pH 7.4” value in assay [1] stood at 119; in assay [2], 76; in assay [3] it was 76.

B2: MS_M103205H795-SG1/M103202L889-SK1 (antibody, human IgG1, kappa)
heavy: not shown
light: B1 light
notes: Parent antibody of the Fc variants; also called MS1032LO06-SG1
As usually defined, the Kd is the equilibrium constant for the complex coming apart. In the case of B2, the affinity in assay [4], expressed as Kd, was 17 µM.

B3: M103205H795-MY009/M103202L889-SK1 (antibody, human IgG1, kappa)
heavy: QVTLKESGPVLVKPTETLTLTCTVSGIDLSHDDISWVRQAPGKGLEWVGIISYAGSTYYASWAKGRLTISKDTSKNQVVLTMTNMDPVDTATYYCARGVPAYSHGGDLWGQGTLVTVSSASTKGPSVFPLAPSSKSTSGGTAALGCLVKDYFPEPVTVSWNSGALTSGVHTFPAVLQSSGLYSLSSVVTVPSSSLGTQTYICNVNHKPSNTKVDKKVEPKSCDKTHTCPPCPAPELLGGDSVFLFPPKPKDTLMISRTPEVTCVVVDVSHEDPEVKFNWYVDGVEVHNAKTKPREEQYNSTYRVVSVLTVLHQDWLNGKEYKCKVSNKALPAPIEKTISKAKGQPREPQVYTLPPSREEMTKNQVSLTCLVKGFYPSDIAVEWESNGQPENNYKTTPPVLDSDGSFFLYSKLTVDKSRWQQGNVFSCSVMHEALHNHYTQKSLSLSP
light: B1 light
notes: CH MY009 = SG1 with P238D (EU numbering); also called MS1032LO06-MY009
For B3, the equilibrium dissociation constant (Kd) in assay [5] came out at 75 µM; in assay [6], 100 µM.

Source of the values: US20200317768A1 (published 2020).
